The values that follow are results of earlier work, collected in article PMC5419744.

This data set has as its target DNA polymerase III subunit tau (Escherichia coli) (UniProt P06710).
Chain of UniProt P06710 (P06710 2-643): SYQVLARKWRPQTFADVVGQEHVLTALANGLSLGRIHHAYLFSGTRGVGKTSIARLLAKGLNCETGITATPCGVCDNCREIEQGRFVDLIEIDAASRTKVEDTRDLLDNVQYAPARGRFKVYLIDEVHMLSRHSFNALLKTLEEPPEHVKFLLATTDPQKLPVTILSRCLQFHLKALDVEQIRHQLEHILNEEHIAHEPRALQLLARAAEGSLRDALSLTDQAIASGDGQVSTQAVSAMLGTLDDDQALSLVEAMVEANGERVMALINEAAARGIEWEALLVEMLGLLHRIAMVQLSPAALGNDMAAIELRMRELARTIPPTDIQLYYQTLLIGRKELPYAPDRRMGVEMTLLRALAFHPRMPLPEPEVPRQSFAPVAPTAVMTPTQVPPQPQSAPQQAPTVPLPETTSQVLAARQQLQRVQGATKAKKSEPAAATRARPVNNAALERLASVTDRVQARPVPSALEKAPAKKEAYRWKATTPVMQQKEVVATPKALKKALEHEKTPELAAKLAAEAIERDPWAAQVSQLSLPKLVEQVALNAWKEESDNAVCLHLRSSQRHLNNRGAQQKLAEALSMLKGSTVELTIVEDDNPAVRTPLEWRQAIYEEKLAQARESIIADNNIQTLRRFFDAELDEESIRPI

In general, Kd refers to the concentration at which binding is half-saturated. As for “DNA polymerase III subunit alpha (from UniProt P10443)”, the Kd is 0.3 nM.
